# According to PMC4447588:
# Assays:
# [1] = system: Cc1cc2nc3c(=O)[nH]c(=O)nc-3n(C[C@H](O)[C@H](O)[C@H](O)COP(=O)(O)O)c2cc1C; assay: purified protein; conditions: NADPH, pH 7.0, 37 °C, varied: cofactor
# [2] = system: NC(=O)C1=CN([C@@H]2O[C@H](COP(=O)(O)OP(=O)(O)OC[C@H]3O[C@@H](n4cnc5c(N)ncnc54)[C@H](OP(=O)(O)O)[C@@H]3O)[C@@H](O)[C@H]2O)C=CC1; assay: purified protein; conditions: FMN, pH 7.0, 37 °C
substance,measurement,setting,value
PpArsH (Pseudomonas putida KT2440),K0.5,[1],7.8 µM
same,Km,[2],74 µM
